Assay: yeast display, Sf9 membrane polyspecificity reagent, FACS + sequencing; frameworks hold sequencing errors
In short: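 Polyreactivity labels are assigned by the sorting gate from which each nanobody was recovered. The gates were low and high (top ~1%), set on anti-HA fluorescence for expression and streptavidin fluorescence for reagent binding. Before sorting, galactose-induced (36–48 hours) yeast display cells were stained for 1 hour at 4 °C with 10% biotinylated, detergent-solubilized Sf9 membrane reagent.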

With “QVQLVEAGGGLVQAGGSLRLSCAASGGIFLPYAMGWYRQAPGKERELVAGITSVGSTYADSVKGRFTISRDNAKNTVYLQMNSLKPEDTAVYYCNADIYFVEYDYWGQGTQVTVSS” as the sequence, how does the “polyreactivity (PSR sort gate)” value read?
Its value is “low polyreactivity”.

For “QVQLVEAGGGLVQAGGSLRLSCAASGSIFFIYAMGWYRQAPGKERELVAAITSGDRTYSADSVKGRFTISRDNAKNTVYLQMNSLKPEDTAVYYCNADYYISYWGQGTQVTVSS”, which “polyreactivity (PSR sort gate)” value is on record?
Its value is “low polyreactivity”.

Which “polyreactivity (PSR sort gate)” value does the source give for “QVQLVEAGGGLVQAGGSLRLSCAASGSTFSYAMGWYRQAPGKETELVAAITIGGRTSYADSVKGRFTISRDNAKNTVYLQMNSLKPEDTAVYYCAAEGYYPVYYYVYYGFDYWGQGTQVTVSS” here?
Its value is “low polyreactivity”.

With “QVQLVEAGGGLVQAGGSLRLSCAASGYIFAYYAMGWYRQAPGKERELVATIRSGGSTNYADSVKGRFTISRDNGKNTVYLQMNSLKPEDTAVYYCARDDATAGDYWGQGTQVTVSS” as the sequence, how does the “polyreactivity (PSR sort gate)” value read?
The value was “low polyreactivity”.

Which “polyreactivity (PSR sort gate)” value does the source give for “QVQLVEAGGGLVQAGGSLRLSCASSGRIFPFNAMGRYRQAPGKEREFVAAIRLSGTRKYYADSVKGRFTISRDNAKNTVYLQMNSLKPEDTAVYYCAAKYSGHYYNYDYWGQGTQVTVSS” here?
The value was “high polyreactivity”.

With “QVQLVEAGGGLVQAGGTLRLSCAASGSNFSENTMGWYRPAPGKKRELVADITSGGSTNYADSVKGRFTISRDNAKNTVYLQMNSMKAEVTAVYYCAADYNGEYDYWGQGSQVTVSS” as the sequence, how does the “polyreactivity (PSR sort gate)” value read?
The value was “low polyreactivity”.

Which “polyreactivity (PSR sort gate)” value does the source give for “QVQLVELGGGLVQAGGSLRLSCAASGLTLYYYAMGWYRQEPGKERELVAAINRGGSTYYADSVKGRFTISRDNAKNTVYLQMNSLKPEATAVYYCAVDYGVRDLTYYYWGQGTQVTVSS” here?
The value was “low polyreactivity”.

Which “polyreactivity (PSR sort gate)” value does the source give for “QVQLVESAAGLVQAGGSLRLSCAASGFIFWYYAMGWSRQAPGKERELVAAINSSGGSTYYADSVKGRFSISRDNAKNTVYLQMNSLKPEDSAVYYCAARAYQRGNYWGQGTQVTVSS” here?
The value was “high polyreactivity”.

For “QVQLVESAAGLVQAGGSLRLSCAASGLNFASYGMGGYRQAPGKERELVAAISSSVGNTYYADSVKGRFTISRDYAKNTVYLQMNSLNPEDTAVYYCAAAKRSGYTGFKYYYWGQGTQVTVSS”, which “polyreactivity (PSR sort gate)” value is on record?
Its value is “high polyreactivity”.

With “QVQLVESAAGLVQAGGSLRLSCAASGSTFAGNAMGWYRQAPGKERELVAAIDSSTGSTYYADSVKGRFTISRDNAKNTVYLQMNSLKPEDTAVYYCNKTSFLVKLDYWGQGTQVTVSS” as the sequence, how does the “polyreactivity (PSR sort gate)” value read?
The value was “low polyreactivity”.

With “QVQLVESAAGLVQAGGSLRLTCAASGLTFTTYAKGWYTQSPRKDRELVAAISRRGSRTYYADSVKGRFTISRDNAKNTVYLQMQSLKPDDTAVYYCNALTGSFKTDSFDYWGQGTQVTVSS” as the sequence, how does the “polyreactivity (PSR sort gate)” value read?
Its value is “high polyreactivity”.

Which “polyreactivity (PSR sort gate)” value does the source give for “QVQLVESAAGLVQAVGSHRLSCAASRLTFGFYAMGSDRQARGKESELVAAIDFSDGSTYYADSVKGRFTISRDNAKKTVYLQMNSLKPEDTAVYYCAADDPGLGYWSLTWYDYWGQGTQVTVSS” here?
Its value is “high polyreactivity”.

With “QVQLVESAAVLVQAGGRLRLSCADSGRIFTDNGMGWYRQAPGKERELVAAISESGGSTYYADSVKGRFTISRDNAKNTVYLQMNSLKPEDTAVYYCAADLYWYGYHYDYWGQGTQVTVSS” as the sequence, how does the “polyreactivity (PSR sort gate)” value read?
Its value is “low polyreactivity”.

Which “polyreactivity (PSR sort gate)” value does the source give for “QVQLVESAGALVQEGGSLRLICAASGFTFLKNAMGWYRQAPGKERELVDGISRSGGSTYYADSVKRRFTISRDKAKNPDYLQMNSQKPEDPAVYYCAAGTVQSYTWLPTRGDYWGQGSQVTVSS” here?
Its value is “high polyreactivity”.

With “QVQLVESAGCLVQAGGSLRLSCAASGRTFAVYAMGWSRPAPGKQREMVAAITLGASRSYYADSVKGRFTISRDNAKNTVYLQMNRLKPEDSAVYYWNDVGRLNVDSYLNDYWGKGTQVTVSS” as the sequence, how does the “polyreactivity (PSR sort gate)” value read?
Its value is “low polyreactivity”.

With “QVQLVESAGCLVQAGGSLRLSCAASGSIISAYARGWYRQAPGKERQLVAAITRSGGSTYYADSVKGRFTISRDYAKITVYLQMNSLKPEDTAVYYCAARSYVHVFVRMYYWGQGTQVTVSS” as the sequence, how does the “polyreactivity (PSR sort gate)” value read?
Its value is “high polyreactivity”.

Which “polyreactivity (PSR sort gate)” value does the source give for “QVQLVESAGGIVQAGGSLRLSCDASGSIFYYYAMGWYRQAPGKERELVADISYRGSRTFYADSVKGLFTISRDIAKNTVYLQMNSLKPEDTEVYYCAAAYSRYTSRFYYWGQGTQVTVSS” here?
Its value is “high polyreactivity”.

For “QVQLVESAGGLDQAGGSLRLICAASGGTFSFYAMGWYRHAPGKEREFVAAITASDGSTYADSVKGRFTISRDNAKNTVYLQMNSLKPEDTAVYYCAVAGGEFSSYGYWGQGTQVTVSS”, which “polyreactivity (PSR sort gate)” value is on record?
Its value is “low polyreactivity”.

For “QVQLVESAGGLDQAGGSLRLICDASGFISRNAMGWYTQAPGKERELVAAITRGGSTNYADSVKGRFTISRDNAKNTVYLQMNSLKPEDSAVYYCNQQRQGNSRSYYQTYYGMYYWGQGTQVTVSS”, which “polyreactivity (PSR sort gate)” value is on record?
Its value is “high polyreactivity”.

For “QVQLVESAGGLGQAGGSLRLSSAASGITTRTYAMGWYRQARGNERELVAAISDSGDRTYYADSVKGRFTISRDNAKNTVYLQMNSLKPEETAVYYCAVHAPGPRCEYWGQGTQVTVSS”, which “polyreactivity (PSR sort gate)” value is on record?
The value was “low polyreactivity”.

Which “polyreactivity (PSR sort gate)” value does the source give for “QVQLVESAGGLVHARGSLRLSCAASGRIFERNAMGSYRQAPGKERELVARITSGGGTYYADSVKGRFTISRDNAKNTVYLQMNSLKPEDTAVYYCAVQYLYRKYRRYDYWGLGTQVTVSS” here?
The value was “high polyreactivity”.

With “QVQLVESAGGLVPAGGSLRLSCAASGSIIITKAMGWYRQAPGKERELVAAISWTDDITYYADSVKGRFTISRDNAKNTVYLQMNSLKPEDTAVYYCAAEETSYAYDYWGQGTQVTVSS” as the sequence, how does the “polyreactivity (PSR sort gate)” value read?
Its value is “low polyreactivity”.

For “QVQLVESAGGLVQAAASLRLSCADSGITFVVYTMGWYRQAPGKERELVASISISGDSTNYADSVKGRFTISRDNAKNTVYLQMNSLKPEDTAVYYCNAAFYHFQFPWIAYDYWGQGTQVTVSS”, which “polyreactivity (PSR sort gate)” value is on record?
The value was “low polyreactivity”.

Which “polyreactivity (PSR sort gate)” value does the source give for “QVQLVESAGGLVQAGASLRLSCAASGYIFFGNAMGWYRQAPGKERELVAAIRWRGTSTYYADSVKGRFTISRDNAKNTVYLQMNSLKPEDSAVYYCAADVVRSNFYGTFLYDYDYWGQGTQVTVSS” here?
Its value is “low polyreactivity”.

With “QVQLVESAGGLVQAGGILRLSCAASGITIYRYAMGWYRQAPGKERELVADISSGGGTTYYADSVKGRFTISRYNAKNTVYLQMNSQKPEDTAVYYCAADYGFRYPLYDYWGQGTQVTVSS” as the sequence, how does the “polyreactivity (PSR sort gate)” value read?
Its value is “low polyreactivity”.

Which “polyreactivity (PSR sort gate)” value does the source give for “QVQLVESAGGLVQAGGILRLSCAASGRTFEGNPMGWYRQAPGKERELVAAITSGGRTNYADSVKGRLTISRDNAKNTVYLQMNSLKPEDTAVYYCAATSTYRSYREYDYWGQGTQVTVSS” here?
Its value is “low polyreactivity”.

With “QVQLVESAGGLVQAGGRLRVSCAASGFTFTLYAMGWYRQEPGKERELVAAINRSGGRTYYADSVKGRFTISRDNAKNTVYLQKNSLKPEDTAVYYCNKYPWPNYYDGEYDYWGQGTQVTVSS” as the sequence, how does the “polyreactivity (PSR sort gate)” value read?
The value was “high polyreactivity”.

For “QVQLVESAGGLVQAGGSLRIICAASGRIFSVNSMGGYRQAPGKERELDATIRTDGTTNYADSVKGRFTISRDNAKNTVYLQMNSLQPGDPAVYYCNARIPYSWRYGYWGQGTQVTVSS”, which “polyreactivity (PSR sort gate)” value is on record?
The value was “high polyreactivity”.

Which “polyreactivity (PSR sort gate)” value does the source give for “QVQLVESAGGLVQAGGSLRISCAASGRTFFKYAMGWYSQAPGKERELVAAITGRGGSTYADSVKGRFTISRDNAKNTVYLQINSLKPEDTSVFYCAKVYQRGAQYYYYKYDYWGQGTQVTVSS” here?
The value was “high polyreactivity”.

With “QVQLVESAGGLVQAGGSLRLICAASGGTFVGYAMGWYRQAPGKERELVAAISRRGGSTYYADSVKGRFTISRDNAKNTVYLQMNSLKPEDTAVYYCAKSEHRSVPQYDYWGQGTQVTVSS” as the sequence, how does the “polyreactivity (PSR sort gate)” value read?
The value was “high polyreactivity”.

For “QVQLVESAGGLVQAGGSLRLSCAASASIFYVYSMGWSRQAPGKEREFVAAISWRGGSTYYADSVKGRFTISRDNAKNTVYLQMISLKPEDTAVFYCNGRRLGYRSGHPGYYWGQGTQVTVSS”, which “polyreactivity (PSR sort gate)” value is on record?
Its value is “high polyreactivity”.

For “QVQLVESAGGLVQAGGSLRLSCAASGFTFGENALGWYRQAPGKERELVAAIRYSGGSTYYADSVKGRFTLSRDNAKNTVYLQLNSLKAEDTAVYYCNADTYALGAAVIPGDEYWGQGTQVTVSS”, which “polyreactivity (PSR sort gate)” value is on record?
The value was “low polyreactivity”.

With “QVQLVESAGGLVQAGGSLRLSCAASGFTFTKYAMGWYRQAPRKESELVAAISSSGYSTYYADSVKGRFTISRDNAKNTVYLQMNSLKPEDSAVYYCAARGYYSSGVDYWGQGTQVTVSS” as the sequence, how does the “polyreactivity (PSR sort gate)” value read?
Its value is “high polyreactivity”.

For “QVQLVESAGGLVQAGGSLRLSCAASGFTFTYYVMGWYRQAPGKERELVAAISSGGSTYYADSVKGRFTISRDNAKNTVYLQMNSLKPEDTAVYYCAKGSGYYYRYGYWGQGTQVTVSS”, which “polyreactivity (PSR sort gate)” value is on record?
Its value is “high polyreactivity”.

With “QVQLVESAGGLVQAGGSLRLSCAASGGIFGINAMGWYRQAPGKERELVAAINLSGGRTYYADSVKGRFTISRDNAKNTVYLQMNSLKPEDTAVYYCAAFYGYSLYGHYEYWGQGTQVTVSS” as the sequence, how does the “polyreactivity (PSR sort gate)” value read?
The value was “high polyreactivity”.

With “QVQLVESAGGLVQAGGSLRLSCAASGIIFDTNAMGCYRQAPGKERELVASISKRGGSTYYADSVKGRFTISRDNAKNTVYLQMNSLKPEDTAVYYCNALRRRQYHDDYWGQGTQVTVSS” as the sequence, how does the “polyreactivity (PSR sort gate)” value read?
The value was “high polyreactivity”.

Which “polyreactivity (PSR sort gate)” value does the source give for “QVQLVESAGGLVQAGGSLRLSCAASGIIFIYYTMGWYRQAPGKERELVAVITTSGDGTYYADSVKGRFTISRDNAKNTVYFQMNSLKPEDTAVYYCAASYSTWVSSRNDYWGQGTQVTVSS” here?
The value was “low polyreactivity”.

Which “polyreactivity (PSR sort gate)” value does the source give for “QVQLVESAGGLVQAGGSLRLSCAASGIIFRYYAMGWYRQAPGKERELVARITSRGGTYYADSVKGRFTISRDNAKNNVYLQMNSLKPEDTAVYYCAASYLLTHGYAYNYWGQGTQVTVSS” here?
The value was “high polyreactivity”.

Which “polyreactivity (PSR sort gate)” value does the source give for “QVQLVESAGGLVQAGGSLRLSCAASGIISRWYAMGWYRQAPGKERELVAAITRGGNTYYADSVKGRFTISRDNAKNTVYLQMNSLKPEDTAVYYCAARTPSRYLYFEYDYWGQGTQVTVSS” here?
Its value is “low polyreactivity”.

With “QVQLVESAGGLVQAGGSLRLSCAASGITLSYNAMGWYRQAPGKERELVAAISARGGSTYYADSVKGRFTISRDNAKNTVYLQMNSLKPEVTAVYYCAAPRGWRQNKYDYWGQGTEVTVSS” as the sequence, how does the “polyreactivity (PSR sort gate)” value read?
The value was “high polyreactivity”.

With “QVQLVESAGGLVQAGGSLRLSCAASGLILHINTMGWYRQAPGKERELVAAISWSGDSTYYADSVKGRFTISRDNAKNTVYLQMNSLKPDDTAVYYCTTDYGHTYLYGYDYWGQGTQVTVSS” as the sequence, how does the “polyreactivity (PSR sort gate)” value read?
Its value is “high polyreactivity”.

— the nanobody polyreactivity screen of Harvey et al. (2022)
